Drawing on PMC11514473, “The transition state for coupled folding and binding of a disordered DNA binding domain resembles the unbound state” (Nucleic Acids Research, 2024), this text covers Kd for one molecule.

Common to all, as to experiment: stopped-flow fluorescence (koff/kon); 10 mM Mg2+; 10 mM MES pH 6.5, 150 mM NaCl, 10 mM MgCl2, 0.05% Tween-20, 25 C; NMR: 10 mM Tris-d11, 150 mM NaCl, 10 mM MgCl2, 1 mM NaN3, 5% D2O (NOE at 25 C)
Common to all, as to details: protein: recombinant; tags: extra N-terminal Gly; chain copies: 2; label: 5' Alexa Fluor 488; hairpin (self-annealing, 11 bp stem, CCCC loop)

In one data set the target is T1, 285bZIP E295A/E299A (human, UniProt P16220-1 285-339, C300S;C310S;C337S;E295A;E299A).
T1 sequence: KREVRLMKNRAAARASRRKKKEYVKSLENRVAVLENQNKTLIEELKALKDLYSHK

The target of another data set is T2, 285bZIP K309G (human, UniProt P16220-1 285-339, C300S;C310S;C337S;K309G).
T2 sequence: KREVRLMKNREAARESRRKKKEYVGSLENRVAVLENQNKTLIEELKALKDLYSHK

In another data set the target is T3, 285bZIP M291A (human, UniProt P16220-1 285-339, C300S;C310S;C337S;M291A).
T3 sequence: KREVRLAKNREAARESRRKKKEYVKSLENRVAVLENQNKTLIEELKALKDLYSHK

In another data set the target is T4, 285bZIP V288G (human, UniProt P16220-1 285-339, C300S;C310S;C337S;V288G).
T4 sequence: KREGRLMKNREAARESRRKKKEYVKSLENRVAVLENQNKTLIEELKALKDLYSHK

The next data set concerns the target T5, 285bZIP E295G (human, UniProt P16220-1 285-339, C300S;C310S;C337S;E295G).
T5 sequence: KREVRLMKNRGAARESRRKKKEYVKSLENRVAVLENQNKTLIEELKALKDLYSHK

A further data set addresses T6, 285bZIP R302A (human, UniProt P16220-1 285-339, C300S;C310S;C337S;R302A).
T6 sequence: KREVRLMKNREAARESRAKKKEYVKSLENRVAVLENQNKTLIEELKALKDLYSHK

In the next data set the target is T7, 285bZIP E287A (human, UniProt P16220-1 285-339, C300S;C310S;C337S;E287A).
T7 sequence: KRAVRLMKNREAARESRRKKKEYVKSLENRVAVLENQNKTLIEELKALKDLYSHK

A further data set addresses T8, 285bZIP E295G/E299G (human, UniProt P16220-1 285-339, C300S;C310S;C337S;E295G;E299G).
T8 sequence: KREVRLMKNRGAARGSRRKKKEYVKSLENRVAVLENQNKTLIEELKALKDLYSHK

A further data set deals with T9, 285bZIP E299A/E306A (human, UniProt P16220-1 285-339, C300S;C310S;C337S;E299A;E306A).
T9 sequence: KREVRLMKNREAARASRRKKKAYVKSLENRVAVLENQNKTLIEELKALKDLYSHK

The target of another data set is T10, 285bZIP E295A (human, UniProt P16220-1 285-339, C300S;C310S;C337S;E295A).
T10 sequence: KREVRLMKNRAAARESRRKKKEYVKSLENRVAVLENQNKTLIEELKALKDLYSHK

As usually defined, the Kd is the concentration at which binding is half-saturated.

On to CCTGACGTCAGCCCCCTGACGTCAGG (structured_DNA) [AlexaFluor488-CREh], for which the Kd in the data set with 285bZIP E295A/E299A was found to be 0.102 ± 0.008 nM; with 285bZIP K309G, 26 ± 2 nM; with 285bZIP M291A, 0.31 ± 0.03 nM; in the data set with 285bZIP V288G it was 2.77 ± 0.16 nM; with 285bZIP E295G it was 6 ± 0.4 nM; with 285bZIP R302A it was 13.9 ± 1.8 nM. Besides, the Kd with 285bZIP E287A was 1.89 ± 0.11 nM; with 285bZIP E295G/E299G, 170 ± 50 nM; with 285bZIP E299A/E306A, 0.0415 ± 0.0008 nM; with 285bZIP E295A it was 0.239 ± 0.016 nM.
